Where a chain is given by its changes, count along the chain named.
T1: BCMA (Homo sapiens (Human), UniProt Q02223 1-54, limits assumed)
T1 sequence: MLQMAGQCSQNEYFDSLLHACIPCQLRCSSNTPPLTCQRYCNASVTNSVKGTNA

B1: D-domain SEQ ID NO: 182 (designed binder)
chain: MGSWSEFWDRLYAIRIRLDALGGSEAELAAFEKEIAAFESELQAYKGKGNPEVEKLRSVAARIRNWLQAYRHN
B2: D-domain SEQ ID NO: 184 (designed binder)
chain: B1 chain with W8N, Y12D, I16W, K55W, S58Q, R62T, N65Y, W66R
B3: D-domain SEQ ID NO: 212 (designed binder)
chain: B1 chain with S5N, D9E, R15E, I16L, D19F, S58M, V59T, R62Y, W66E
B4: D-domain SEQ ID NO: 215 (designed binder)
chain: B1 chain with S5H, R15E, I16F, D19F, K55S, S58Q, R62K, N65W, W66H
B5: D-domain SEQ ID NO: 211 (designed binder)
chain: B1 chain with S5T, D9E, R15E, I16Y, D19F, R62T, N65Y, W66E
B6: D-domain SEQ ID NO: 183 (designed binder)
chain: B1 chain with D9F, Y12G, I16N, S58D, R62H, N65H
B7: D-domain SEQ ID NO: 210 (designed binder)
chain: B1 chain with S5M, R15E, I16F, D19F, S58R, R62T, W66E
B8: D-domain SEQ ID NO: 230 (designed binder)
chain: MGSWNEFYQRLEAIENRLQALGGSEAELAMFEVRIALFEDMLQGYKGKGNPEVEALKQEAIAILRELIAYRHN
B9: D-domain SEQ ID NO: 181 (designed binder)
chain: MGSWAEFDLRLRAIAKRLVALGGSEAELAAFEKEIAAFESELQAYKGKGNPEVEMLRLDAAYIRGVLQAYRHN
B10: D-domain SEQ ID NO: 171 (designed binder)
chain: MGSWIEFHQRLNAIFNRLRALGGSEAELAAFEKEIAAFESELQAYKGKGNPEVEWLRHHAAYIREMLQAYRHN
B11: D-domain SEQ ID NO: 179 (designed binder)
chain: B10 chain with I5V, H8W, Q9E, N12D, F15D, R19G, H58W, E65G, M66Y
B12: D-domain SEQ ID NO: 180 (designed binder)
chain: MGSWAEFWDRLDAIDSRLNALGGSEAELAAFEKEIAAFESELQAYKGKGNPEVEYLREWAAYIRGYLQAYRHN
B13: D-domain SEQ ID NO: 176 (designed binder)
chain: MGSWYEFDTRLGAIRNRLGALGGSEAELAAFEKEIAAFESELQAYKGKGNPEVEWLRFQAAYIRFLLQAYRHN
B14: D-domain SEQ ID NO: 177 (designed binder)
chain: B13 chain with D8W, T9V, G12T, N16W, G19E, F58E, Y62S, F65W, L66V
B15: D-domain SEQ ID NO: 216 (designed binder)
chain: MGSWDEFEFRLGALRWRLIALGGSEAELAAFEKEIAAFESELQAYKGKGNPEVEYLRFGAAHIRHILQAYRHN
B16: D-domain SEQ ID NO: 217 (designed binder)
chain: B15 chain with D5T, E8Y, F9H, G12Y, L14I, W16E, I19S, I66L
B17: D-domain SEQ ID NO: 218 (designed binder)
chain: B15 chain with D5V, F9T, G12D, L14I, W16M, I19G, H65A, I66L
B18: D-domain SEQ ID NO: 226 (designed binder)
chain: MGSWYEFVTRLHAIDHRLKALGGSEADLAAFEKEIAAFESELQAYKGKGNPEVEWLRFYAAGIRMNLQAYRHN
B19: D-domain SEQ ID NO: 224 (designed binder)
chain: MGSWWEFTFRLAAIEFRLEALGGSEAELAAFEKEIAAFESELQAYKGKGNPEVEDLRAIAAEIRKSLQAYRHN
B20: D-domain SEQ ID NO: 227 (designed binder)
chain: MGSWSIEFWRLEAIKFRLIALGGSEAELAAFEKEIAAFESELQAYKGKGNPEVEFLRVEAAAIRRVLQAYRHN
B21: D-domain SEQ ID NO: 225 (designed binder)
chain: MGSWDEFQFRLAAIGFRLGALGGSEAELAAFEKEIAAFESELQAYKGKGNPEVEVLRRQAARIRHLLQAYRHN
B22: D-domain SEQ ID NO: 219 (designed binder)
chain: MGSWGEFDVRLFAIRERLSALGGSEAELAAFEKEIAAFESELQAYKGKGNPEVEYLRGYAAQIRSFLQAYRHN
B23: D-domain SEQ ID NO: 221 (designed binder)
chain: B22 chain with G5S, V9G, F12G, R15W, E16D, S19Y, G58D, Y59R, S65E
B24: D-domain SEQ ID NO: 223 (designed binder)
chain: B22 chain with D8N, V9G, F12G, S19Q, Y55F, G58A, Q62S, S65A, F66V
B25: D-domain SEQ ID NO: 220 (designed binder)
chain: B22 chain with G5V, V9E, F12S, S19D, G58L, S65V
B26: D-domain SEQ ID NO: 173 (designed binder)
chain: MGSWYEFWLRLSAISYRLQALGGSEAELAAFEKEIAAFESELQAYKGKGNPEVEWLRKEAAEIRSWLQAYRHN
B27: D-domain SEQ ID NO: 213 (designed binder)
chain: B26 chain with L9K, S12Y, S15E, Q19F, W55A, E59V, E62K, S65E, W66Q
B28: D-domain SEQ ID NO: 174 (designed binder)
chain: B26 chain with W8Q, S12W, S15H, Y16W, Q19I, K58M, E59R, S65N, W66E
B29: D-domain SEQ ID NO: 203 (designed binder)
chain: MGSWTEFWTRLNAIYERLDALGGSEAELAAFEKEIAAFESELQAYKGKGNPEVEKLRFTAASIRMYLQAYRHN
B30: D-domain SEQ ID NO: 231 (designed binder)
chain: MGSWNEFYDRLRAIKKRLYALGGSEAELADFEEDIAQFEVDLQDYKGKGNPEVEALHREAHAITHELWAYRHN
B31: D-domain SEQ ID NO: 175 (designed binder)
chain: MGSWYEFAHRLEAIEWRLIALGGSEAELAAFEKEIAAFESELQAYKGKGNPEVEELRQYAAAIRNYLQAYRHN
B32: D-domain SEQ ID NO: 229 (designed binder)
chain: MGSWIEFAMRLEAIENRLTALGGSEAELAIFESMIAHFEELLQNYKGKGNPEVEALIHEAFAIHKELWAYRHN
B33: D-domain SEQ ID NO: 228 (designed binder)
chain: MGSWGEFEHRLDPSTCVWLALGGSEAELAAFEKEIAAFESELQAYKGKGNPEVEKLRRGAAVIRHWLQAYRHN
B34: D-domain SEQ ID NO: 172 (designed binder)
chain: MGSWNEFRLRLWAITERLRALGGSEAELAAFEKEIAAFESELQAYKGKGNPEVECLRAEAAWIRTMLQAYRHN
B35: D-domain SEQ ID NO: 232 (designed binder)
chain: MGSWGEFKHRLALIKWYLEALGGSEAELAHFEDWIAVFEVQLQNYKGKGNPEVEALRKEAAAIRDELQAYRHN
B36: D-domain SEQ ID NO: 233 (designed binder)
chain: B35 chain with G5Y, L13I, H30K, D33A, V37E, V40M, Q41I, N44R
B37: D-domain SEQ ID NO: 238 (designed binder)
chain: B35 chain with G5D, E6A, D33E, W34Y, V37E, V40S, Q41N, N44S
B38: D-domain SEQ ID NO: 237 (designed binder)
chain: B35 chain with G5Y, E6N, L13I, Y17F, H30V, D33V, V37D, V40H, N44E
B39: D-domain SEQ ID NO: 236 (designed binder)
chain: B35 chain with G5F, E6Q, L13I, Y17Q, H30W, D33Q, V37D, V40H, N44H
B40: D-domain SEQ ID NO: 235 (designed binder)
chain: B35 chain with G5Y, E6N, L13I, H30R, D33N, W34F, V37N, V40T, N44L
B41: D-domain SEQ ID NO: 239 (designed binder)
chain: B35 chain with G5D, E6G, H30N, D33N, V37E, V40Q, Q41R, N44Y
B42: D-domain SEQ ID NO: 234 (designed binder)
chain: B35 chain with G5Y, L13I, D33Q, W34Y, V37D, V40G, Q41T, N44K
B43: D-domain SEQ ID NO: 240 (designed binder)
chain: MGSWNGFKHRLAIIKWYLEALGGSEAELASFESYIAEFESGLQEYKGKGNPEVEALRKEAAAIRDELQAYRHN
B44: D-domain SEQ ID NO: 163 (designed binder)
chain: MGSWMEFEGRLHAIKRRLRALGGSEAELAAFEKEIAAFESELQAYKGKGNPEVEVLRDQAAYIRLLLQAYRHN
B45: D-domain SEQ ID NO: 222 (designed binder)
chain: B22 chain with D8E, V9G, F12H, E16S, Y55V, Q62W, S65A, F66L
B46: D-domain SEQ ID NO: 166 (designed binder)
chain: B44 chain with E8D, G9E, H12W, R16K, V55F, D58H, L65M
B47: D-domain SEQ ID NO: 170 (designed binder)
chain: MGSWVEFDNRLYAIVDRLRALGGSEAELAAFEKEIAAFESELQAYKGKGNPEVEHLRQKAAYIRLILQAYRHN
B48: D-domain SEQ ID NO: 164 (designed binder)
chain: B44 chain with M5S, E8V, G9F, H12D, A13T, R16S, V55T, L66M
B49: D-domain SEQ ID NO: 168 (designed binder)
chain: B47 chain with V5Y, N9G, Y12Q, V15I, D16A, Q58F, K59R, L65W
B50: D-domain SEQ ID NO: 167 (designed binder)
chain: B44 chain with M5H, E8D, H12S, R19W, V55H, L65Y, L66M
B51: D-domain SEQ ID NO: 165 (designed binder)
chain: B44 chain with M5Y, E8D, G9E, H12S, R16L, D58A, L65A, L66I
B52: D-domain SEQ ID NO: 169 (designed binder)
chain: B47 chain with V5F, N9K, V15I, D16H, H55K, Q58Y, Y62I, I66Y
B53: D-domain SEQ ID NO: 178 (designed binder)
chain: MGSWFEFDRRLKAIDRRLMALGGSEAELAAFEKEIAAFESELQAYKGKGNPEVEWLRMQAAIIRNYLQAYRHN

target: T1, BCMA; assay: ELISA, format not described; set-up: unit not given here

Question: Which ELISA_avg does the source give for B1 here?
Answer: 12.5

Question: With B2 as the binder, how does the ELISA_avg read?
Answer: 13.6

Question: With B3 as the binder, how does the ELISA_avg read?
Answer: 9.95

Question: With B4 as the binder, how does the ELISA_avg read?
Answer: 7.3

Question: Which ELISA_avg does the source give for B5 here?
Answer: 12.7

Question: With B6 as the binder, how does the ELISA_avg read?
Answer: 14.9

Question: For B7, which ELISA_avg is on record?
Answer: 11.7

Question: How did the ELISA_avg turn out when B8 was run?
Answer: 6.01

Question: Which ELISA_avg does the source give for B9 here?
Answer: 4.09

Question: How did the ELISA_avg turn out when B10 was run?
Answer: 7.34

Question: Which ELISA_avg does the source give for B11 here?
Answer: 11.4

Question: How did the ELISA_avg turn out when B12 was run?
Answer: 18.2

Question: How did the ELISA_avg turn out when B13 was run?
Answer: 13.9

Question: Which ELISA_avg does the source give for B14 here?
Answer: 5.72

Question: For B15, which ELISA_avg is on record?
Answer: 9.2

Question: How did the ELISA_avg turn out when B16 was run?
Answer: 9.63

Question: Which ELISA_avg does the source give for B17 here?
Answer: 14.1

Question: Which ELISA_avg does the source give for B18 here?
Answer: 4.12

Question: For B19, which ELISA_avg is on record?
Answer: 5.75

Question: Which ELISA_avg does the source give for B20 here?
Answer: 8.43

Question: With B21 as the binder, how does the ELISA_avg read?
Answer: 6.16

Question: B22 was tested. Which ELISA_avg did it give?
Answer: 7.35

Question: How did the ELISA_avg turn out when B23 was run?
Answer: 10

Question: B24 was tested. Which ELISA_avg did it give?
Answer: 4.95

Question: How did the ELISA_avg turn out when B25 was run?
Answer: 5.61

Question: B26 was tested. Which ELISA_avg did it give?
Answer: 14.5

Question: Which ELISA_avg does the source give for B27 here?
Answer: 14.8

Question: Which ELISA_avg does the source give for B28 here?
Answer: 20.6

Question: With B29 as the binder, how does the ELISA_avg read?
Answer: 8.43

Question: For B30, which ELISA_avg is on record?
Answer: 12.4

Question: Which ELISA_avg does the source give for B31 here?
Answer: 9.48

Question: How did the ELISA_avg turn out when B32 was run?
Answer: 10.7

Question: Which ELISA_avg does the source give for B33 here?
Answer: 4.05

Question: Which ELISA_avg does the source give for B34 here?
Answer: 3.87

Question: B35 was tested. Which ELISA_avg did it give?
Answer: 17.1

Question: How did the ELISA_avg turn out when B36 was run?
Answer: 5.5

Question: For B37, which ELISA_avg is on record?
Answer: 13

Question: B38 was tested. Which ELISA_avg did it give?
Answer: 16.4

Question: How did the ELISA_avg turn out when B39 was run?
Answer: 10.4

Question: How did the ELISA_avg turn out when B40 was run?
Answer: 6.76

Question: For B41, which ELISA_avg is on record?
Answer: 23.6

Question: B42 was tested. Which ELISA_avg did it give?
Answer: 14.8

Question: B43 was tested. Which ELISA_avg did it give?
Answer: 16.5

Question: B44 was tested. Which ELISA_avg did it give?
Answer: 7.33

Question: How did the ELISA_avg turn out when B45 was run?
Answer: 6.17

Question: For B46, which ELISA_avg is on record?
Answer: 9.53

Question: For B47, which ELISA_avg is on record?
Answer: 11.7

Question: B48 was tested. Which ELISA_avg did it give?
Answer: 19.9

Question: With B49 as the binder, how does the ELISA_avg read?
Answer: 3.29

Question: B50 was tested. Which ELISA_avg did it give?
Answer: 5.4

Question: How did the ELISA_avg turn out when B51 was run?
Answer: 16.9

Question: Which ELISA_avg does the source give for B52 here?
Answer: 11.8

Question: How did the ELISA_avg turn out when B53 was run?
Answer: 6.16

Reference: patent publication US20250026849A1 (ARCELLX, published 2025)
